{
  "source": "patent US20200173960A1",
  "key": {"bevacizumab [1]": {"target": "bevacizumab", "test": "Bevacizumab PK ELISA (anti-idiotype capture) of bevacizumab 0.5 ug/mL pre-bound with ADA; bevacizumab:ADA 10:1"}, "bevacizumab [2]": {"target": "bevacizumab", "test": "Bevacizumab PK ELISA (anti-idiotype capture) of bevacizumab 0.5 ug/mL pre-bound with ADA; bevacizumab:ADA 1:5"}, "bevacizumab [3]": {"target": "bevacizumab", "test": "Bevacizumab PK ELISA (anti-idiotype capture) of bevacizumab 50 ug/mL pre-bound with ADA; bevacizumab:ADA 1:1"}, "bevacizumab [4]": {"target": "bevacizumab", "test": "Bevacizumab PK ELISA (anti-idiotype capture) of bevacizumab 0.5 ug/mL pre-bound with ADA; bevacizumab:ADA 1:2"}, "bevacizumab [5]": {"target": "bevacizumab", "test": "Bevacizumab PK ELISA (anti-idiotype capture) of bevacizumab 0.5 ug/mL pre-bound with ADA; bevacizumab:ADA 1:100"}, "bevacizumab [6]": {"target": "bevacizumab", "test": "cell-based or functional assay"}, "bevacizumab [7]": {"target": "bevacizumab", "test": "Bevacizumab PK ELISA (anti-idiotype capture) of bevacizumab 0.5 ug/mL pre-bound with ADA; bevacizumab:ADA 1:1"}, "bevacizumab [8]": {"target": "bevacizumab", "test": "Bevacizumab PK ELISA (anti-idiotype capture) of bevacizumab 0.5 ug/mL pre-bound with ADA; bevacizumab:ADA 5:1"}, "bevacizumab [9]": {"target": "bevacizumab", "test": "Bevacizumab PK ELISA (anti-idiotype capture) of bevacizumab 50 ug/mL pre-bound with ADA; bevacizumab:ADA 100:1"}, "bevacizumab [10]": {"target": "bevacizumab", "test": "Bevacizumab PK ELISA (anti-idiotype capture) of bevacizumab 0.5 ug/mL pre-bound with ADA; bevacizumab:ADA 1:50"}, "bevacizumab [11]": {"target": "bevacizumab", "test": "Bevacizumab PK ELISA (anti-idiotype capture) of bevacizumab 50 ug/mL pre-bound with ADA; bevacizumab:ADA 10:1"}, "bevacizumab [12]": {"target": "bevacizumab", "test": "Bevacizumab PK ELISA (anti-idiotype capture) of bevacizumab 0.5 ug/mL pre-bound with ADA; bevacizumab:ADA 1:10"}, "bevacizumab [13]": {"target": "bevacizumab", "test": "Bevacizumab PK ELISA (anti-idiotype capture) of bevacizumab 50 ug/mL pre-bound with ADA; bevacizumab:ADA 5:1"}, "bevacizumab [14]": {"target": "bevacizumab", "test": "method not stated; affinity listed for the purchased ADA"}},
  "data": [
    {"substance": "MAB11128 (clone2C8) (antibody)", "values": [
      {"measurement": "Accuracy (%) ELISA", "setting": "bevacizumab [1]", "value": 44.2, "unit": "%"},
      {"measurement": "Accuracy (%) ELISA", "setting": "bevacizumab [2]", "value": 2.3, "unit": "%"},
      {"measurement": "Accuracy (%) ELISA", "setting": "bevacizumab [3]", "value": 5.72, "unit": "%"},
      {"measurement": "Accuracy (%) ELISA", "setting": "bevacizumab [4]", "value": 3.2, "unit": "%"},
      {"measurement": "Accuracy (%) ELISA", "setting": "bevacizumab [5]", "value": 0, "unit": "%"},
      {"measurement": "Accuracy (%) nSMOL; bevacizumab 0.5 ug/mL; bevacizumab:ADA 1:1", "setting": "bevacizumab [6]", "value": 98.2, "unit": "%"},
      {"measurement": "Accuracy (%) nSMOL; bevacizumab 0.5 ug/mL; bevacizumab:ADA 1:2", "setting": "bevacizumab [6]", "value": 110, "unit": "%"},
      {"measurement": "Accuracy (%) nSMOL; bevacizumab 0.5 ug/mL; bevacizumab:ADA 1:5", "setting": "bevacizumab [6]", "value": 111, "unit": "%"},
      {"measurement": "Accuracy (%) nSMOL; bevacizumab 0.5 ug/mL; bevacizumab:ADA 1:10", "setting": "bevacizumab [6]", "value": 110, "unit": "%"},
      {"measurement": "Accuracy (%) nSMOL; bevacizumab 0.5 ug/mL; bevacizumab:ADA 1:50", "setting": "bevacizumab [6]", "value": 110, "unit": "%"},
      {"measurement": "Accuracy (%) nSMOL; bevacizumab 0.5 ug/mL; bevacizumab:ADA 1:100", "setting": "bevacizumab [6]", "value": 104, "unit": "%"},
      {"measurement": "Accuracy (%) nSMOL; bevacizumab 0.5 ug/mL; bevacizumab:ADA 5:1", "setting": "bevacizumab [6]", "value": 98, "unit": "%"},
      {"measurement": "Accuracy (%) nSMOL; bevacizumab 0.5 ug/mL; bevacizumab:ADA 10:1", "setting": "bevacizumab [6]", "value": 91.3, "unit": "%"},
      {"measurement": "Accuracy (%) nSMOL; bevacizumab 50 ug/mL; bevacizumab:ADA 1:1", "setting": "bevacizumab [6]", "value": 102, "unit": "%"},
      {"measurement": "Accuracy (%) nSMOL; bevacizumab 50 ug/mL; bevacizumab:ADA 5:1", "setting": "bevacizumab [6]", "value": 97.3, "unit": "%"},
      {"measurement": "Accuracy (%) nSMOL; bevacizumab 50 ug/mL; bevacizumab:ADA 10:1", "setting": "bevacizumab [6]", "value": 100, "unit": "%"},
      {"measurement": "Accuracy (%) nSMOL; bevacizumab 50 ug/mL; bevacizumab:ADA 100:1", "setting": "bevacizumab [6]", "value": 101, "unit": "%"},
      {"measurement": "Accuracy (%) nSMOL; bevacizumab first immobilized on Protein A; bevacizumab:ADA 1:1", "setting": "bevacizumab [6]", "value": 106, "unit": "%"},
      {"measurement": "Accuracy (%) nSMOL; bevacizumab first immobilized on Protein A; bevacizumab:ADA 5:1", "setting": "bevacizumab [6]", "value": 106, "unit": "%"},
      {"measurement": "Accuracy (%) nSMOL; bevacizumab first immobilized on Protein A; bevacizumab:ADA 10:1", "setting": "bevacizumab [6]", "value": 104, "unit": "%"},
      {"measurement": "Accuracy (%) nSMOL; bevacizumab first immobilized on Protein A; bevacizumab:ADA 100:1", "setting": "bevacizumab [6]", "value": 109, "unit": "%"},
      {"measurement": "Accuracy (%) ELISA", "setting": "bevacizumab [7]", "value": 6.9, "unit": "%"},
      {"measurement": "Accuracy (%) ELISA", "setting": "bevacizumab [8]", "value": 14.2, "unit": "%"},
      {"measurement": "Accuracy (%) ELISA", "setting": "bevacizumab [9]", "value": 102, "unit": "%"},
      {"measurement": "Accuracy (%) ELISA", "setting": "bevacizumab [10]", "value": 0.1, "unit": "%"},
      {"measurement": "Accuracy (%) ELISA", "setting": "bevacizumab [11]", "value": 68.5, "unit": "%"},
      {"measurement": "Accuracy (%) ELISA", "setting": "bevacizumab [12]", "value": 2.4, "unit": "%"},
      {"measurement": "Accuracy (%) ELISA", "setting": "bevacizumab [13]", "value": 65.5, "unit": "%"}
    ]},
    {"substance": "HCA185 (antibody)", "values": [
      {"measurement": "Accuracy (%) ELISA", "setting": "bevacizumab [1]", "value": 104, "unit": "%"},
      {"measurement": "Kd", "setting": "bevacizumab [14]", "value": 0.4, "unit": "nM"},
      {"measurement": "Accuracy (%) ELISA", "setting": "bevacizumab [2]", "value": 39.6, "unit": "%"},
      {"measurement": "Accuracy (%) ELISA", "setting": "bevacizumab [3]", "value": 76.8, "unit": "%"},
      {"measurement": "Accuracy (%) ELISA", "setting": "bevacizumab [4]", "value": 55.8, "unit": "%"},
      {"measurement": "Accuracy (%) ELISA", "setting": "bevacizumab [5]", "value": 35.2, "unit": "%"},
      {"measurement": "Accuracy (%) nSMOL; bevacizumab 0.5 ug/mL; bevacizumab:ADA 1:1", "setting": "bevacizumab [6]", "value": 95.5, "unit": "%"},
      {"measurement": "Accuracy (%) nSMOL; bevacizumab 0.5 ug/mL; bevacizumab:ADA 1:2", "setting": "bevacizumab [6]", "value": 82.1, "unit": "%"},
      {"measurement": "Accuracy (%) nSMOL; bevacizumab 0.5 ug/mL; bevacizumab:ADA 1:5", "setting": "bevacizumab [6]", "value": 54.8, "unit": "%"},
      {"measurement": "Accuracy (%) nSMOL; bevacizumab 0.5 ug/mL; bevacizumab:ADA 1:10", "setting": "bevacizumab [6]", "value": 22.8, "unit": "%"},
      {"measurement": "Accuracy (%) nSMOL; bevacizumab 0.5 ug/mL; bevacizumab:ADA 1:50", "setting": "bevacizumab [6]", "value": 22.9, "unit": "%"},
      {"measurement": "Accuracy (%) nSMOL; bevacizumab 0.5 ug/mL; bevacizumab:ADA 1:100", "setting": "bevacizumab [6]", "value": 23.1, "unit": "%"},
      {"measurement": "Accuracy (%) nSMOL; bevacizumab 0.5 ug/mL; bevacizumab:ADA 5:1", "setting": "bevacizumab [6]", "value": 105, "unit": "%"},
      {"measurement": "Accuracy (%) nSMOL; bevacizumab 0.5 ug/mL; bevacizumab:ADA 10:1", "setting": "bevacizumab [6]", "value": 107, "unit": "%"},
      {"measurement": "Accuracy (%) nSMOL; bevacizumab 50 ug/mL; bevacizumab:ADA 1:1", "setting": "bevacizumab [6]", "value": 75.7, "unit": "%"},
      {"measurement": "Accuracy (%) nSMOL; bevacizumab 50 ug/mL; bevacizumab:ADA 5:1", "setting": "bevacizumab [6]", "value": 90.3, "unit": "%"},
      {"measurement": "Accuracy (%) nSMOL; bevacizumab 50 ug/mL; bevacizumab:ADA 10:1", "setting": "bevacizumab [6]", "value": 95.8, "unit": "%"},
      {"measurement": "Accuracy (%) nSMOL; bevacizumab 50 ug/mL; bevacizumab:ADA 100:1", "setting": "bevacizumab [6]", "value": 100, "unit": "%"},
      {"measurement": "Accuracy (%) nSMOL; bevacizumab first immobilized on Protein A; bevacizumab:ADA 1:1", "setting": "bevacizumab [6]", "value": 58.9, "unit": "%"},
      {"measurement": "Accuracy (%) nSMOL; bevacizumab first immobilized on Protein A; bevacizumab:ADA 5:1", "setting": "bevacizumab [6]", "value": 90, "unit": "%"},
      {"measurement": "Accuracy (%) nSMOL; bevacizumab first immobilized on Protein A; bevacizumab:ADA 10:1", "setting": "bevacizumab [6]", "value": 106, "unit": "%"},
      {"measurement": "Accuracy (%) nSMOL; bevacizumab first immobilized on Protein A; bevacizumab:ADA 100:1", "setting": "bevacizumab [6]", "value": 105, "unit": "%"},
      {"measurement": "inhibitory effect on quantification values (nSMOL), ratio 1:1", "setting": "bevacizumab [6]", "value": 50, "unit": "%"},
      {"measurement": "Accuracy (%) ELISA", "setting": "bevacizumab [7]", "value": 73.5, "unit": "%"},
      {"measurement": "Accuracy (%) ELISA", "setting": "bevacizumab [8]", "value": 86.6, "unit": "%"},
      {"measurement": "Accuracy (%) ELISA", "setting": "bevacizumab [9]", "value": 95.6, "unit": "%"},
      {"measurement": "Accuracy (%) ELISA", "setting": "bevacizumab [10]", "value": 37.2, "unit": "%"},
      {"measurement": "Accuracy (%) ELISA", "setting": "bevacizumab [11]", "value": 84.1, "unit": "%"},
      {"measurement": "Accuracy (%) ELISA", "setting": "bevacizumab [12]", "value": 38.9, "unit": "%"},
      {"measurement": "Accuracy (%) ELISA", "setting": "bevacizumab [13]", "value": 76.2, "unit": "%"}
    ]}
  ]
}
